Four proteins from publication PMC10628242, “Enzymatic β-elimination in natural product O- and C-glycoside deglycosylation” (Nature Communications, 2023) can be followed below.

Substrate in series [1]: O=C(CCc1ccc(O)cc1)c1c(O)cc(O)cc1O[C@@H]1O[C@H](CO)[C@@H](O)C(=O)[C@H]1O
The series is described as follows: initial rates, HPLC of phloretin release. In kind it is biochemical, Agrobacterium radiobacter. The settings on record: potassium phosphate pH 6.0, 5% DMSO, 37 °C, printed kcat is 10-fold above the one implied by printed kcat/Km (1.2 × 10^6 M^−1s^−1) and by 235 U/mg.

Substrate in series [2]: O=C(CCc1ccc(O)cc1)c1c(O)cc(O)cc1O[C@@H]1O[C@H](COP(=O)(O)O)[C@@H](O)[C@H](O)[C@H]1O
The series is described as follows: initial rates, HPLC of phloretin release. The note with it: HEPES pH 7.5, 0.5 mM MnSO4, 0.3 mM NAD+, 37 °C. It is filed as biochemical, Thermotoga maritima.

Substrate in series [3]: O=C1[C@@H](O)[C@H](c2c(O)ccc3c(=O)c(-c4ccc(O)cc4)coc23)O[C@H](CO)[C@H]1O
The series is described as follows: initial rates, HPLC of daidzein release. In kind it is biochemical, human intestinal bacterium PUE. The settings on record: potassium phosphate pH 6.0, 5% DMSO, 37 °C, preincubated with 5 mM MnCl2, substrate is a 2/3-keto mixture.

Substrate in series [4]: O=C(CCc1ccc(O)cc1)c1c(O)cc(O)cc1O[C@@H]1O[C@H](CO)[C@@H](O)C(=O)[C@H]1O
Kind of series: initial rates, HPLC of phloretin release. The note with it: potassium phosphate pH 6.0, 5% DMSO, 37 °C, preincubated with 5 mM MnCl2. In kind it is biochemical, human intestinal bacterium PUE.

Substrate in series [5]: O=C(CCc1ccc(O)cc1)c1c(O)cc(O)cc1O[C@@H]1O[C@H](COP(=O)(O)O)[C@@H](O)[C@H](O)[C@H]1O
Kind of series: initial rates, HPLC of phloretin release. The note with it: HEPES pH 7.5, 0.5 mM MnSO4, 0.3 mM NAD+, 37 °C. In kind it is biochemical, Bacillus subtilis.

B1: AtOGE (Agrobacterium radiobacter) (protein)
chain: KLDDSKTLPIAAQMYTLRNAGTLEEQLAILNRAGVSAVETVDMQKVSASELNALLEKHKIKVISSHVPIDKLRGNLDEVITEQKAVGNPVVTVPFLKPEDRPKDAAGWTAFGKELGGYADKLSAAGLSMAYHNHDFEMVKFDGKTALELLLDAAGPKLQSELDVAWVARSGNDPAEFLGTLNGRVFAIHAKDDAPAGTAENERGFATIGTGVLDWKTILPAAKHAGAQWFILEHDLPLDAEAVVTKGNAFLSERLPTIQ
notes: N-terminal Strep-tag II kept in assays (cut by TEV only for crystallization); E. coli Lemo21(DE3); 29,895 Da subunit; Mn2+ enzyme; dimer in crystal
Turning to B1, the Km in series [1] is listed as 0.10 (±0.01) mM.

B2: BglT (Thermotoga maritima MSB8) (protein)
chain: MRIAVIGGGSSYTPELVKGLLDISEDVRIDEVIFYDIDEEKQKIVVDFVKRLVKDRFKVLISDTFEGAVVDAKYVIFQFRPGGLKGRENDEGIPLKYGLIGQETTGVGGFSAALRAFPIVEEYVDTVRKTSNATIVNFTNPSGHITEFVRNYLEYEKFIGLCNVPINFIREIAEMFSARLEDVFLKYYGLNHLSFIEKVFVKGEDVTEKVFENLKLKLSNIPDEDFPTWFYDSVRLIVNPYLRYYLMEKKMFKKISTHELRAREVMKIEKELFEKYRTAVEIPEELTKRGGSMYSTAAAHLIRDLETDEGKIHIVNTRNNGSIENLPDDYVLEIPCYVRSGRVHTLSQGKGDHFALSFIHAVKMYERLTIEAYLKRSKKLALKALLSHPLGPDVEDAKDLLEEILEANREYVKLG
notes: N-terminal Strep-tag II; E. coli; 48,997 Da; GH4, Mn2+ and NAD+ dependent
For the protein B2, in series [2], the Km stood at 300 µM and the kcat is about 0.01 s⁻¹.

B3: PuCGE (human intestinal bacterium PUE) (protein)
chain 1: MSNVKLGVTLYSFSTEYCQGKMTLEDCIRTAKELGAAGFEIVATQMIPSYPYVSDKFLGELKSICQYYDMEPVCYGANCDRGLRGDRNLTGDEMVAMAVRDIKNAHKMGCKVVREQWLMGPENFAKLAPFAEHYGVKVGIEVHNPETPITQSTKDYIAAIDKTGSKYLGLIPDFGCFANKPNKMNWDNALADGADKKLLEMARDMKYDNVPYDEAVKRLTAAGAKKVELTTMRDMYTFLTFKKDVSAELQGLKDMIPYCIHMHGKYHYMYENLQEAAIPYDDIMKIVSESDYDGYIVSEYEEYNSGHSIEMLRRHLKMMHNFVD
chain 2: MGLALRLNFVDVVCDDSLKNFWANGKKIGYQFDVRLSYYRGHFLSTIDEIGVKVDGVDVPAENISLCLDGKEYGVAELHDLVNVFWPIIEPATIKVFQPGGLSEEEHDVDFTLYFRSPYMALSETEYQSIDSCGSKRLNVQN
notes: heterodimer alpha (39,205 Da) + beta (18,313 Da), co-expressed from pET-Duet-1 in E. coli; N-terminal Strep-tag II; Mn2+ enzyme
As to B3, in series [3], the Km was 0.8 (±0.1) mM and the kcat is listed as 18 (±0.4) s^−1. In addition, in series [4], the Km is listed as 0.6 (±0.1) mM and the kcat is 1.20 (±0.05) s^−1.

B4: GlvA (Bacillus subtilis subsp. subtilis str. 168) (protein)
chain: MKKKSFSIVIAGGGSTFTPGIVLMLLDHLEEFPIRKLKLYDNDKERQDRIAGACDVFIREKAPDIEFAATTDPEEAFTDVDFVMAHIRVGKYAMRALDEQIPLKYGVVGQETCGPGGIAYGMRSIGGVLEILDYMEKYSPDAWMLNYSNPAAIVAEATRRLRPNSKILNICDMPVGIEDRMAQILGLSSRKEMKVRYYGLNHFGWWTSIQDQEGNDLMPKLKEHVSQYGYIPKTEAEAVEASWNDTFAKARDVQAADPDTLPNTYLQYYLFPDDMVKKSNPNHTRANEVMEGREAFIFSQCDMITREQSSENSEIKIDDHASYIVDLARAIAYNTGERMLLIVENNGAIANFDPTAMVEVPCIVGSNGPEPITVGTIPQFQKGLMEQQVSVEKLTVEAWAEKSFQKLWQALILSKTVPNARVARLILEDLVEANKDFWPELDQSPTRIS
notes: N-terminal Strep-tag II; E. coli; 51,960 Da; GH4, Mn2+ and NAD+ dependent
Take B4: in series [5], the Km is 100 µM and the kcat is about 0.02 s⁻¹.
